Assay results taken from patent US20240400680A1 (SHANGHAI CELGEN BIO PHARMACEUTICAL, published 2024).

B1: human-mouse chimeric TIGIT monoclonal antibody 7103-01 (hFc) (antibody, from a related filing, V domains shown)
VH: QVQLQQPGAELVKPGASVKLSCKASGYTFISYNIYWVKQRPGQGLEWIGGVNPSNGNTNFNENFKSKATLTVDKSSSTAYMQLSSLTSDDSAVYFCTRGNYYGYEFAYWGQGTLVTVSA
VL: DIVMTQSHKFMSTSVGDRVSITCKASQHVSTAVAWYQQKPGQSPKLLIYSPSYRYTGVPDRFTGSGSGTDFTFTISSVQAEDLAVYYCQQHYSTPWTFGGGTKLEIK
B2: humanized anti-TIGIT monoclonal antibody P03479 (antibody, V domains shown)
VH: EVQVVESGGGLVKPGGSLRLSCAASGFTFSTYAMSWVRQAPGKGLEWVAEISSGGSHTFYADTVKGRFTISRDNAKNTLYLQMNSLRAEDTAVYYCARKTLDYYALDYWGQGTTVTVSS
VL: DVQITQSPSYLSASVGDRVTINCRASKSISKYLAWYQQKPGKAPKLLIYSGSRLQSGIPSRFSGSGYGTDFTLTISSLQPEDFATYYCQQHNEYPWTFGGGTKLEIK
notes: Only variable domains are tied to P03479 itself; HC1/LC1 of the fusion proteins derive from it
B3: human-mouse chimeric TIGIT monoclonal antibody 7103-07 (hFc) (antibody, from a related filing, V domains shown)
VH: EVQVVESGGGLVKPGGTLKLSCAASGFTFSTYAMSWVRQSPEQRLEWVAEISSGGSHTFYSDTVTGRFTISRDNAQNTLYLEMNSLRSEDTAMYYCARKTLDYYALDYWGQGTSVTVSS
VL: DVQITQSPSYLAASPGETITINCRASKSISKYLAWYQEKPGKTNKLLIYSGSRLQSGIPSKFSGSGYGTDFTLTISSLEPEDFAMYYCQQHNEYPWTFGGGTKVEIK
B4: humanized anti-TIGIT monoclonal antibody P03489 (antibody, V domains shown)
VH: QVQLVQSGAEVKKPGASVKVSCKASGYTFISYNIYWVRQAPGQGLEWMGGVNPSNGNTNFNENFQGRVTMTVDTSISTAYMELSRLRSDDTAVYYCTRGNYYGYEFAYWGQGTTVTVSS
VL: DIQMTQSPSSMSASVGDRVTITCKASQHVSTAVAWYQQKPGKAPKLLIYSPSYRYTGVPSRFSGSGSGTDFTFTISSVQPEDIATYYCQQHYSTPWTFGGGTKLEIK
notes: Only variable domains are tied to P03489 itself; HC2/LC2 of the fusion proteins derive from it

Tests used:
[1] = biological target: T1, full-length human TIGIT on the cell membrane (CHO-K-TIGIT cells; TIGIT-Jurkat cells) (human) (UniProt Q495A1); experiment: cell-based or functional assay
T1 sequence (looked up): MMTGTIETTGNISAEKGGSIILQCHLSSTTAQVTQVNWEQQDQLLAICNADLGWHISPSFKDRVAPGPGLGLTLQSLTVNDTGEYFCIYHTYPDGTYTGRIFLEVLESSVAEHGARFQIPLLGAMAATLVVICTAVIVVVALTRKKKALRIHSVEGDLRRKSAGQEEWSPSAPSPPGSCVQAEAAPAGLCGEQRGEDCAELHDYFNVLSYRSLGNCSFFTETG

[2] = biological target: recombinant human TIGIT (Human TIGIT His, Sino Biological, 10917-H08H) (human) (UniProt Q495A1); experiment: BLI (GATOR), antibody on human antibody capture probe, TIGIT-His 40-10 nM
[3] = biological target: T2, full-length human TIGIT on the cell membrane (CHO-K-TIGIT cells; TIGIT-Jurkat cells) (human, UniProt Q495A1 22-244); experiment: flow cytometry on TIGIT-Jurkat cells
T2 construct: whole, on cells; Also used here for TIGIT on human PBMCs in the IFN-gamma assay; also called CHO-TIGIT
T2 sequence (looked up): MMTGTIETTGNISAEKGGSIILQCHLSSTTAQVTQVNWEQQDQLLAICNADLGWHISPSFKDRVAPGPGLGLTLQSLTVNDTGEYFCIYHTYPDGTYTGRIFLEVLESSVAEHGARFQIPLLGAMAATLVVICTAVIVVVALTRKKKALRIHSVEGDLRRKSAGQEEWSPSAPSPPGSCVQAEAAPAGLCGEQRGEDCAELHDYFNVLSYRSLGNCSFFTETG
Description: The binding activity of the anti-TIGIT antibody-IL2 fusion proteins to TIGIT on the cell membrane was tested using flow cytometry. A Jurkat cell line stably expressing human TIGIT was first established. The full-length human TIGIT gene (Sinobio) was amplified by PCR and cloned into the mammalian cell expression vector pcDNA3.1 (Invitrogen), using Not I and Xba I as cloning enzymes. The TIGIT expression plasmid was transfected into Jurkat cells to construct a stable Jurkat cell line expressing TIGIT (TIGIT-Jurkat).
The flow cytometry study method for the binding of TIGIT antibody-IL2 fusion proteins to cell membrane-bound TIGIT is summarized as follows: FACS buffer (1×PBS+0.5% BSA solution) was prepared. The required number of TIGIT-Jurkat cells, about 1×10⁵ to 5×10⁵ cells per sample, was taken and incubated with HC1-IL2 wt/LC1 (ART-Ig) and HC1-IL2mut/LC1 (ART-Ig) diluted to a certain ratio in FACS buffer, approximately 100 μL, at 4° C. for 30 minutes. After washing the cells once with FACS buffer, they were resuspended in FITC-conjugated anti-human IgG (Abcam: 6854) diluted in FACS buffer and incubated at 4° C. for 30 minutes. Finally, after washing the cells with FACS buffer, they were resuspended in 200 μL of FACS buffer for analysis. The parent TIGIT antibody P03479 was used as a control.

[4] = biological target: T3, recombinant human TIGIT (Human TIGIT His, Sino Biological, 10917-H08H) (human, UniProt Q495A1 22-138); experiment: ELISA on recombinant human TIGIT protein
T3 construct: range 1-138; Bought protein; also called recombinant human TIGIT antigen; recombinant human TIGIT protein; not shown: C-terminal histidine tag
T3 sequence (looked up): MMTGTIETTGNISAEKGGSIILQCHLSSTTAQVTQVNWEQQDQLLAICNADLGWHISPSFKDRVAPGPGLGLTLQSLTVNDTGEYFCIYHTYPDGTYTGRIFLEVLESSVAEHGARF

Molecule	Kd [2] [nM]	koff [2] [s⁻¹]	kon [2] [M⁻¹ s⁻¹]	other results
Tiragolumab (antibody)	–	–	–	IFNγ release from PHA-activated PBMCs, increase [1]: 16%
B1	1.73	0.000951	549000	–
B2	–	–	–	EC50 [3]: 0.26 µg/mL
B3	2.96	0.00169	573000	–
B4	–	–	–	EC50 [4]: 0.5 nM
